Experimental data taken from article doi:10.1101/2024.03.04.583282 (bioRxiv, 2024).

B1: N-terminally truncated NATA2 (30-236, NATA2Δ) (enzyme, Arabidopsis thaliana, UniProt Q9ZV06 30-236, looked up)
chain: MFSRIRLATPSDVPFIHKLIHQMAVFERLTHLFSATESGLASTLFTSRPFQSFTVFLLEVSRSPFPATITSSPSPDFTPFFKTHNLDLPIDDPESYNFSPDMLNDVVVAGFVLFFPNYSSFLSKPGFYIEDIFVREPYRRKGFGSMLLTAVAKQAVKMGYGRVEWVVLDWNVNAIKFYEQMGAQILQEWRVCRLTGDALEAFDQVNI
B2: N-terminally truncated NATA1 (19-228, NATA1Δ) (enzyme, Arabidopsis thaliana, UniProt Q9ZV05 19-228, looked up)
chain: TGHRMFSRIRLATPTDVPFIHKLIHQMAVFERLTHLFVATESGLASTLFNSRPFQAVTVFLLEISPSPFPTTHDASSPDFTPFLETHKVDLPIEDPDREKFLPDKLNDVVVAGFVLFFPNYPSFLAKQGFYIEDIFMREPYRRKGFGKLLLTAVAKQAVKLGVGRVEWIVIDWNVNAINFYEQMGAQVFKEWRLCRLTGDALQAIDKLNI
B3: full-length NATA2 (enzyme, Arabidopsis thaliana, UniProt Q9ZV06 1-236, looked up)
chain: MAAAAPPPPPTAAPEPNMVAPLISPIGHPMFSRIRLATPSDVPFIHKLIHQMAVFERLTHLFSATESGLASTLFTSRPFQSFTVFLLEVSRSPFPATITSSPSPDFTPFFKTHNLDLPIDDPESYNFSPDMLNDVVVAGFVLFFPNYSSFLSKPGFYIEDIFVREPYRRKGFGSMLLTAVAKQAVKMGYGRVEWVVLDWNVNAIKFYEQMGAQILQEWRVCRLTGDALEAFDQVNI

Target: the molecule itself
Assay: crystal structure

Stoichiometry N, 2:
B1
B2
B3
